# Experimental data reported in US20260200990A1, “MODIFIED LONG PEPTIDES SUITABLE FOR USE IN IMMUNISATION” (ISABELLA PHARMA B.V., priority 2022, published 2026).
# Ends that are not written are not given here.
# Key:
# [1] = Stability of peptide mixtures under long term and accelerated storage (UPLC); assay type: physicochemical; details: peptide in mixture of 6 peptides
# Protocol: To examine the effect on stability of peptides that contain cystine (oxidized, C (C)) present in a mixture of 6 peptides, two examples of mixtures of both non-cysteine-containing (NCC1-6) and cystine-containing (SEQ ID NO: 1-6) peptides were assessed. Typical chromatograms of the two mixtures are depicted in FIG. 2. Both mixtures were placed on two different storage conditions, ‘long term storage condition’ (i.e. −20±5° C.) and ‘accelerated storage condition’ (i.e. 5±3° C.).
# The purity, the level of impurities, and the quantification per peptide of both mixtures are determined by reversed phase rapid UPLC using a mobile phase gradient of ACN/IPA and water with TFA, and UV detection at λ=220 nm. The method quantifies main peaks and impurities in mixtures of peptides. The reporting threshold for the method is 0.10% a/a.
# Both mixtures of six peptides were stored under the two conditions described and by using the analytical method as described. The stability was monitored. The quantity of each of the peptides present in the mix (assay values), the purity, and the individual impurities were measured at several timepoints over a period of 3 months. […] Furthermore, focussing on the individual impurities it is shown that no significant degradation has taken place as all levels remain constant and no new impurities have formed.
# [2] = Stability of cysteine and cystine-containing peptides in 20% v/v DMSO in WFI (UPLC-UV-MS purity); assay type: physicochemical; details: room temperature
# Protocol: To examine the effect on stability of a peptide that contains cysteine(s) (non-oxidized, C) or cystine(s) (oxidized, C (C)) in a formulation matrix (20% v/v DMSO in WFI (water for injection), four non-oxidized (SEQ ID NO: 1, 2, 3 and 4) and their oxidized, cystine-containing, peptides were manufactured and individually examined in 20% v/v DMSO (aq.)
# Each peptide (2.0 mg) was dissolved in 2.0 ml of 0.09% TFA in H2O: acetonitrile (1:1, v/v). Aliquots of 200 μL were transferred to a 1 mL amber vial and then freeze dried overnight. An aliquot (0.2 mg) was then redissolved in 20% v/v DMSO in WFI (1 mL). After swirling for 2 minutes, a sample was analyzed by UPLC-UV-MS. The remainder of the sample was stored at room temperature and analyzed at different time intervals (1 h, 2 h, 3 h, 4 h). The identity and purity of the purified peptides were then determined by UPLC-UV-MS on a Waters Acquity UPLC/TQD system using an C18 Waters Acquity BEH130 analytical column (1.7 μm particle size, 2.1×150 mm, flow 0.4 mL/min) with a linear gradient (5% B to 95% B, linear gradient in 10 min). The absorbance was measured at 220 nm.
# MassLynx v4.1 was used to integrate the individual peaks of the chromatogram in the region of the observed peptide-derived signals. The following ApexTrack peak detection parameters were used for integration: peak-to-peak baseline noise was set at automatic, peak width at 5% height was set at automatic, baseline start threshold of 0.05% and baseline end threshold of 0.05%. The detect shoulder function was turned on. The following response thresholds were set: relative height of 0.20 and relative area of 0.10. After the peak of the desired peptide was identified by MS, the corresponding integral of the peak in the UV chromatogram is reported in Table 2 as percentage of the total integrated peaks, purity (% a/a).
# Purity of the non-oxidized and oxidized peptide composition over time was evaluated over 4 h. Additional mass adducts, consistent with the formation of intermolecular or intramolecular disulfide bonds, increased over time in all spectra of cysteine-containing peptides compared to cystine-containing peptides. The purity of the non-oxidized peptides set forth in SEQ ID NO: 1, 3 and 4 declined from >90% a/a at to less than 80% a/a with the lowest stability observed for SEQ ID NO: 1 with a purity of 64% a/a after 4 h. For the cystine-containing peptide analogs, the purity remained >90% a/a after 4 h.
Sequence,Assay (net peptide content) (mg/vial) ([1]; Initial),"Assay (net peptide content) (mg/vial) ([1]; Storage at 5 ± 3° C., T1M)","Assay (net peptide content) (mg/vial) ([1]; Storage at 5 ± 3° C., T2M)","Assay (net peptide content) (mg/vial) ([1]; Storage at 5 ± 3° C., T3M)","Assay (net peptide content) (mg/vial) ([1]; Storage at −20 ± 5° C., T2M)","Assay (net peptide content) (mg/vial) ([1]; Storage at −20 ± 5° C., T3M)",Purity (% a/a) ([2]; Time 0 h),Purity (% a/a) ([2]; Time 1 h),Purity (% a/a) ([2]; Time 2 h),Purity (% a/a) ([2]; Time 3 h),Purity (% a/a) ([2]; Time 4 h)
AARLCCQLDPARDVLCLRPVGAESR [Cystine(C(C)) containing SEQ ID NO: 4],0.21,0.20,0.21,0.21,0.20,0.21,93.50,94.26,93.58,93.16,92.89
LSAMSTTDLEAYFKDCLFKDWEELG [SEQ ID 2],0.24,0.24,0.25,0.25,0.25,0.25,,,,,
VLSRKYTSFPWLLGCTANWILRGTSFVYVPSALNPA [Cystine(C(C)) containing SEQ ID NO: 3] (VLSRKYTSFPWLLGC(Cys)TANWILRGTSFVYVPSALNPA) [HBV Pol fragment SLP with cysteinylated cysteine],0.24,0.23,0.24,0.25,0.24,0.25,97.44,97.48,97.28,97.30,97.34
"VVNHYFQTRHYLHTLWKAGILYKRETTRSASFCGSPYSW (VVNHYFQTRHYLHTLWKAGILYKRETTRSASFC(Cys)GSPYSW) [SEQ ID 5, HBV Pol fragment SLP with cysteinylated cysteine]",0.20,0.20,0.21,0.22,0.20,0.22,,,,,
